Here are results for five molecules from patent publication US20150182581A1 (COUNCIL OF SCIENTIFIC AND INDUSTRIAL RESEARCH, published 2015).

The experiment addresses ASK-1 + Nef (Nef and ASK1g co-transfected in ATCC CRL-1573 cells) (HIV-1; human, UniProt Q99683 1-1050). Nature of the experiment: cell-based or functional assay.

ASK-1 + Nef (Nef and ASK1g co-transfected in ATCC CRL-1573 cells), sequence (Q99683 1-1050): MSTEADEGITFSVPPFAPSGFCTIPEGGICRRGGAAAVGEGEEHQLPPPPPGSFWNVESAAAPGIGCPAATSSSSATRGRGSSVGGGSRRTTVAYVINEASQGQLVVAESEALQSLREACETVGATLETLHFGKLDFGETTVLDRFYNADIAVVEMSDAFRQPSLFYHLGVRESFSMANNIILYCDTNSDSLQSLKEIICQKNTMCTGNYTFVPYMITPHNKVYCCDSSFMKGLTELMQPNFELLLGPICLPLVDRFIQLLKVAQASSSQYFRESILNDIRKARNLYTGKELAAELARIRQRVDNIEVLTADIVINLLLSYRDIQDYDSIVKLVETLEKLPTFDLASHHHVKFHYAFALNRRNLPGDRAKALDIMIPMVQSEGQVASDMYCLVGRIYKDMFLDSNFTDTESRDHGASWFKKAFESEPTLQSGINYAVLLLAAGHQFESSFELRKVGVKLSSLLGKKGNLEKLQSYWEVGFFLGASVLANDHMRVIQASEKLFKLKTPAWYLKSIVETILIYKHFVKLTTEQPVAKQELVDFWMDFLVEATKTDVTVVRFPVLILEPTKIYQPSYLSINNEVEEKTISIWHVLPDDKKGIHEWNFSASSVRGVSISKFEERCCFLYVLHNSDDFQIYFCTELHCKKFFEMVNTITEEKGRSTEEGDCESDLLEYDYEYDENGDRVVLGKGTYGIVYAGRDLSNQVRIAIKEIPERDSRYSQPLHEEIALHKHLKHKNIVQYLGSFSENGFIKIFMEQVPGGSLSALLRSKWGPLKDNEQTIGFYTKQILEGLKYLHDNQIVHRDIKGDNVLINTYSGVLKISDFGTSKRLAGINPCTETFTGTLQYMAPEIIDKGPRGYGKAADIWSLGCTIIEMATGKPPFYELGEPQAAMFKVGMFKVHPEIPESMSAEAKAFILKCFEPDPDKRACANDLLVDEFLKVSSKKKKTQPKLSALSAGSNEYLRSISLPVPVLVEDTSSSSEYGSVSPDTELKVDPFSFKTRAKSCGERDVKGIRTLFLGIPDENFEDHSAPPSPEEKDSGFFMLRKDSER

As to GENNCLLH [Peptide-2], the “% of Annexin V cells means apoptotic cells” value came to 25%.

On to PVRPQVPLRP [Peptide-5], for which the “% of Annexin V cells means apoptotic cells” value came out at 22.4%.

Consider LHGMEDPE [Peptide-4], for which the “% of Annexin V cells means apoptotic cells” value turned out to be 23%.

In the case of TPGPGVRYP [Peptide-1], the “% of Annexin V cells means apoptotic cells” value was 22.4%.

On to DEVGEANN [Peptide-3], for which the “% of Annexin V cells means apoptotic cells” value turned out to be 40.4%.
